Our source for the Kd values is publication PMC9338999.

Assay [1] has as its target full-length human EGFR S492R on NIH3T3 cells (human) (UniProt P00533). The experiment in a line: FACS.
The target of assay [2] is full-length human wild-type EGFR on NIH3T3 cells (human) (UniProt P00533). The assay can be described thus: FACS. (In flow cytometry, cells or beads pass a laser one at a time.)
Assay [3] has as its target S492R-EGFR-ECD-Fc (human) (UniProt P00533). The assay can be described thus: ELISA.
In the next assay the target is WT-EGFR-ECD-Fc (human) (UniProt P00533). The experiment in a line: ELISA. (In general: An ELISA detects its analyte on a solid surface through an enzyme-linked reagent.)

Usually Kd stands for the constant that tells how readily two partners part at equilibrium. Low readings indicate higher affinity, high ones lower affinity. Take Panitumumab: the Kd in assay [1] worked out at 2.33 nM; in assay [2], 2.36 nM; in assay [3], 0.0272 nM; with WT-EGFR-ECD-Fc (human), 0.0211 nM.
